Experimental data as given in patent US20220213196A1 (GRITSTONE BIO, published 2022).

What was measured:
[1] = target: HLA-B*35:01_… (HLA-PEPTIDE target G5), recombinant soluble complex (human, UniProt P01889 25-297 at identity 0.94); P61769 21-119, enzymatically biotinylated (BirA) for screening and functional assays); assay: scFv PPE ELISA
[2] = target: HLA-A*01:01_… (HLA-PEPTIDE target G10), recombinant soluble complex (human, UniProt P04439-2 25-297; P61769 21-119, enzymatically biotinylated (BirA) for screening and functional assays); assay: scFv PPE ELISA

Binder | fold binding to target pHLA over minipool of negative control pHLAs [1] [fold] | fold binding to target pHLA over minipool of negative control pHLAs [2] [fold]
scFv G5-P1-E05 (scFv, V domains shown) VH: QVQLVQSGAEVKKPGASVKVSCKASGYTFTSYNMHWVRQAPGQGLEWMGWINPNSGGTNYAQKFQGRVTMTRDTSTSTVYMELSSLRSEDTAVYYCARDVMDVWGQGTTVTVSS VL: DIQMTQSPSSLSASVGDRVTITCRASQGISNYLNWYQQKPGKAPKLLIYYASSLQSGVPSRFSGSGSGTDFTLTISSLQPEDFATYYCQQTYMMPYTFGQGTKVEIK | ≥ 3 | –
scFv R3G10-P4C05 (scFv, V domains shown) VH: QVQLVQSGAEVKKPGASVKVSCKASGYTFTGYYMHWVRQAPGQGLEWMGIIGPSDGSTTYAQKFQGRVTMTRDTSTSTVYMELSSLRSEDTAVYYCARAENGMDVWGQGTTVTVSS VL: DIQMTQSPSSLSASVGDRVTITCRASQRISSYLNWYQQKPGKAPKLLIYSASTLQSGVPSRFSGSGSGTDFTLTISSLQPEDFATYYCQQSYSTPFTFGPGTKVDIK | – | ≥ 3
scFv R3G10-P4D04 (scFv, V domains shown) VH: QVQLVQSGAEVKKPGASVKVSCKASGYTFTGYYVHWVRQAPGQGLEWMGIIAPSDGSTNYAQKFQGRVTMTRDTSTSTVYMELSSLRSEDTAVYYCARDPGGYMDVWGKGTTVTVSS VL: DIQMTQSPSSLSASVGDRVTITCRASQSISSYLAWYQQKPGKAPKLLIYDASKLETGVPSRFSGSGSGTDFTLTISSLQPEDFATYYCQQSYGVPTFGQGTKLEIK | – | ≥ 3
scFv G5R4-P4B01 (scFv, V domains shown) VH: QVQLVQSGAEVKKPGSSVKVSCKASGGTFSSYAISWVRQAPGQGLEWMGGIIPIVGTANYAQKFQGRVTITADESTSTAYMELSSLRSEDTAVYYCARGGSYYYYGMDVWGQGTTVTVSS VL: not shown | ≥ 3 | –
scFv G5-P3G01 (scFv, V domains shown) VH: QVQLVQSGAEVKKPGASVKVSCKASGGTFSGYLVSWVRQAPGQGLEWMGWINPNSGGTNTAQKFQGRVTMTRDTSTSTVYMELSSLRSEDTAVYYCAREGYGMDVWGQGTTVTVSS VL: not shown | ≥ 3 | –
scFv R3G10-P2C04 (scFv, V domains shown) VH: QVQLVQSGAEVKKPGASVKVSCKASGGTFSNSIINWVRQAPGQGLEWMGWMNPNSGNTNYAQKFQGRVTMTRDTSTSTVYMELSSLRSEDTAVYYCAREQWPSYWYFDLWGRGTLVTVSS VL: not shown | – | ≥ 3
scFv G5R4-P1D06 (scFv, V domains shown) VH: QVQLVQSGAEVKKPGASVKVSCKASGYTFTSYDINWVRQAPGQGLEWMGWINPNSGDTKYSQKFQGRVTMTRDTSTSTVYMELSSLRSEDTAVYYCARDGTRYYGMDVWGQGTTVTVSS VL: not shown | ≥ 3 | –
scFv G5R4-P2B10 (scFv, V domains shown) VH: QVQLVQSGAEVKKPGASVKVSCKASGGTFSSYAISWVRQAPGQGLEWMGWMNPDSGSTGYAQRFQGRVTMTRDTSTSTVYMELSSLRSEDTAVYYCARGHSSGWYYYYGMDVWGQGTTVTVSS VL: not shown | ≥ 3 | –
scFv G5R4-P1H11 (scFv, V domains shown) VH: EVQLLESGGGLVKPGGSLRLSCAASGFTFSDYYMSWVRQAPGKGLEWVSYISSSSSYTNYADSVKGRFTISRDDSKNTLYLQMNSLKTEDTAVYYCARDVVANFDYWGQGTLVTVSS VL: EIVMTQSPATLSVSPGERATLSCRASQSVSSNLAWYQQKPGQAPRLLIYAASARASGIPARFSGSGSGTEFTLTISSLQSEDFAVYYCQQYGSWPRTFGQGTKVEIK | ≥ 3 | –
scFv R3G10-P4A02 (scFv, V domains shown) VH: QVQLVQSGAEVKKPGASVKVSCKASGYTLSYYYMHWVRQAPGQGLEWMGMIGPSDGSTSYAQRFQGRVTMTRDTSTGTVYMELSSLRSEDTAVYYCARDTGDHFDYWGQGTLVTVSS VL: not shown | – | ≥ 3
scFv R3G10-P4G06 (scFv, V domains shown, VH and VL as printed equal those of R3G10-P4A02) VH: QVQLVQSGAEVKKPGASVKVSCKASGYTLSYYYMHWVRQAPGQGLEWMGMIGPSDGSTSYAQRFQGRVTMTRDTSTGTVYMELSSLRSEDTAVYYCARDTGDHFDYWGQGTLVTVSS VL: not shown | – | ≥ 3
scFv R3G10-P5C08 (scFv, V domains shown) VH: QVQLVQSGAEVKKPGASVKVSCKASGYNFTGYYMHWVRQAPGQGLEWMGIIAPSDGSTNYAQKFQGRVTMTRDTSTSTVYMELSSLRSEDTAVYYCARETGDDAFDIWGQGTMVTVSS VL: not shown | – | ≥ 3
scFv R3G10-P4E07 (scFv, V domains shown) VH: QVQLVQSGAEVKKPGSSVKVSCKASGYTFTGYYMHWVRQAPGQGLEWMGRISPSDGSTTYAPKFQGRVTITADESTSTAYMELSSLRSEDTAVYYCARDMGDAFDIWGQGTTVTVSS VL: not shown | – | ≥ 3
scFv G5-P4B02 (scFv, V domains shown) VH: QVQLVQSGAEVKKPGASVKVSCKASGYTFTGYYMHWVRQAPGQGLEWMGWMNPNIGNTGYAQKFQGRVTMTRDTSTSTVYMELSSLRSEDTAVYYCARGIADSGSYYGNGRDYYYGMDVWGQGTTVTVSS VL: DIVMTQSPDSLAVSLGERATINCKTSQSVLYRPNNENYLAWYQQKPGQPPKLLIYQASIREPGVPDRFSGSGSGTDFTLTISSLQAEDVAVYYCQQYYTTPYTFGQGTKLEIK | ≥ 3 | –
scFv G5-P1B12 (scFv, V domains shown) VH: EVQLLESGGGLVQPGGSLRLSCAASGFTFSNSDMNWVRQAPGKGLEWVASISSSGGYINYADSVKGRFTISRDNSKNTLYLQMNSLRAEDTAVYYCAKVNWNDGPYFDYWGQGTLVTVSS VL: DIQMTQSPSSLSASVGDRVTITCRASQSISSWLAWYQQKPGKAPKLLIYAASSLQSGVPSRFSGSGSGTDFTLTISSLQPEDFATYYCQQANSFPLTFGGGTKVEIK | ≥ 3 | –
scFv G5-P4E04 (scFv, V domains shown) VH: QVQLVQSGAEVKKPGASVKVSCKASGGTFSSYGISWVRQAPGQGLEWMGWINPNSGVTKYAQKFQGRVTMTRDTSTSTVYMELSSLRSEDTAVYYCARGDYYFDYWGQGTLVTVSS VL: DIQMTQSPSSLSASVGDRVTITCRASQSISRFLNWYQQKPGKAPKLLIYGASRPQSGVPSRFSGSGSGTDFTLTISSLQPEDFATYYCQQSYSTPLTFGQGTKVEIK | ≥ 3 | –
scFv R3G10-P3E04 (scFv, V domains shown) VH: QVQLVQSGAEVKKPGASVKVSCKASGNTFIGYYVHWVRQAPGQGLEWVGIINPNGGSISYAQKFQGRVTMTRDTSTSTVYMELSSLRSEDTAVYYCARGSGDPNYYYYYGLDVWGQGTTVTVSS VL: DIQMTQSPSSLSASVGDRVTITCQASQDISNYLNWYQQKPGKAPKLLIYAASNLQSGVPSRFSGSGSGTDFTLTISSLQPEDFATYYCQQANSLPYTFGQGTKVEIK | – | ≥ 3
scFv G5-P1C12 (scFv, V domains shown) VH: QVQLVQSGAEVKKPGSSVKVSCKASGGTFSNFGVSWLRQAPGQGLEWMGGIIPILGTANYAQKFQGRVTITADESTSTAYMELSSLRSEDTAVYYCATPTNSGYYGPYYYYGMDVWGQGTTVTVSS VL: DIQMTQSPSSLSASVGDRVTITCRASQSISSWLAWYQQKPGKAPKLLIYAASTLQSGVPSRFSGSGSGTDFTLTISSLQPEDFATYYCQQSYSIPLTFGGGTKVEIK | ≥ 3 | –
scFv R3G10-P2G11 (scFv, V domains shown) VH: QVQLVQSGAEVKKPGASVKVSCKASGGTFSTHDINWVRQAPGQGLEWMGVINPSGGSAIYAQKFQGRVTMTRDTSTSTVYMELSSLRSEDTAVYYCARDRGYSYGYFDYWGQGTLVTVSS VL: DIQMTQSPSSLSASVGDRVTITCRASQDISRYLAWYQQKPGKAPKLLIYDASNLETGVPSRFSGSGSGTDFTLTISSLQPEDFATYYCQQANSFPRTFGQGTKVEIK | – | ≥ 3
scFv R3G10-P4D10 (scFv, V domains shown) VH: QVQLVQSGAEVKKPGASVKVSCKASGYTFTGYYLHWVRQAPGQGLEWMGMIGPSDGSTSYAQKFQGRVTMTRDTSTSTVYMELSSLRSEDTAVYYCARDGDAFDIWGQGTMVTVSS VL: DIQMTQSPSSLSASVGDRVTITCRASQGISSWLAWYQQKPGKAPKLLIYDASNLETGVPSRFSGSGSGTDFTLTISSLQPEDFATYYCQQSYSTPLTFGGGTKVEIK | – | ≥ 3
scFv G5-P3G08 (scFv, V domains shown) VH: QVQLVQSGAEVKKPGASVKVSCKASGYIFRNYPMHWVRQAPGQGLEWMGWINPDSGGTKYAQKFQGRVTMTRDTSTSTVYMELSSLRSEDTAVYYCARDNGVGVDYWGQGTLVTVSS VL: DIQMTQSPSSLSASVGDRVTITCRASQGISNYLAWYQQKPGKAPKLLIYAASSLQSGVPSRFSGSGSGTDFTLTISSLQPEDFATYYCQQSYITPYTFGQGTKLEIK | ≥ 3 | –
scFv R3G10-P1H08 (scFv, V domains shown) VH: QVQLVQSGAEVKKPGASVKVSCKASGVTFSTSAISWVRQAPGQGLEWMGWISPYNGNTDYAQMLQGRVTMTRDTSTSTVYMELSSLRSEDTAVYYCARDAHQYYDFWSGYYSGTYYYGMDVWGQGTTVTVSS VL: DIQMTQSPSSLSASVGDRVTITCRASQGISNYLAWYQQKPGKAPKLLIYSASNLQSGVPSRFSGSGSGTDFTLTISSLQPEDFATYYCQQAYSFPWTFGQGTKVEIK | – | ≥ 3
scFv G5R4-P3G05 (scFv, V domains shown) VH: QVQLVQSGAEVKKPGASVKVSCKASGYTFTNYYMHWVRQAPGQGLEWMGIINPSGGSTSYAQKFQGRVTMTRDTSTSTVYMELSSLRSEDTAVYYCARSWFGGFNYHYYGMDVWGQGTTVTVSS VL: DIQMTQSPSSLSASVGDRVTITCQASEDISNHLNWYQQKPGKAPKLLIYDALSLQSGVPSRFSGSGSGTDFTLTISSLQPEDFATYYCQQANSFPFTFGPGTKVDIK | ≥ 3 | –
